Measurements as given in publication PMC4175327, “Distinguishing Closely Related Amyloid Precursors Using an RNA Aptamer*”.

B1: 2'F B6min (XNA)
RNA: GGGAAUUCUGAGCUACUCCCUUUUGGGCCCGGCUAUGAUUCCCG
modifications: 2'-fluoro C and U (3'-terminal G is ribo)
B2: 2'OH B6min (structured_RNA)
RNA: GGGAAUUCUGAGCUACUCCCUUUUGGGCCCGGCUAUGAUUCCCG
modifications: none (2'OH)

Experiments:
[1] = biological target: T1, human beta2-microglobulin (hβ2m), monomer (human, UniProt P61769 21-119); test: intrinsic Trp fluorescence quenching; EC50; Hill slope 0.99 ± 0.06; 1 uM protein; 50 mM MES, 120 mM NaCl, pH 6.2; fluorescence and NMR at 25 °C (NMR plus 0.02% azide, 0.1 mM EDTA, 10% D2O); SPR temperature not stated; conditions: tags: biotin (N terminus, Lys-7 and/or Lys-92), immobilized, for SPR; hairpin with bulges, U tetraloop
[2] = biological target: T1, human beta2-microglobulin (hβ2m), …; test: intrinsic Trp fluorescence quenching; 1 uM protein; 50 mM MES, 120 mM NaCl, pH 6.2; fluorescence and NMR at 25 °C (NMR plus 0.02% azide, 0.1 mM EDTA, 10% D2O); SPR temperature not stated; conditions: tags: biotin (N terminus, Lys-7 and/or Lys-92), immobilized, for SPR; hairpin with bulges, U tetraloop

T1 sequence (P61769 21-119): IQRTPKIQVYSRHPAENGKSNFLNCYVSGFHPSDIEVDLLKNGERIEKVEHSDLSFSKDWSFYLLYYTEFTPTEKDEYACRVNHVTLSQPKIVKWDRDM

| Binder | apparent K (half saturation) [1] | binding result [2] |
| --- | --- | --- |
| B1 | 223 ± 10 nM | – |
| B2 | – | no binding |
